# Data taken from publication PMC2719692.
# Target: T1, eEF1α (GST fusion) (rat) (UniProt P62630)
# T1 sequence: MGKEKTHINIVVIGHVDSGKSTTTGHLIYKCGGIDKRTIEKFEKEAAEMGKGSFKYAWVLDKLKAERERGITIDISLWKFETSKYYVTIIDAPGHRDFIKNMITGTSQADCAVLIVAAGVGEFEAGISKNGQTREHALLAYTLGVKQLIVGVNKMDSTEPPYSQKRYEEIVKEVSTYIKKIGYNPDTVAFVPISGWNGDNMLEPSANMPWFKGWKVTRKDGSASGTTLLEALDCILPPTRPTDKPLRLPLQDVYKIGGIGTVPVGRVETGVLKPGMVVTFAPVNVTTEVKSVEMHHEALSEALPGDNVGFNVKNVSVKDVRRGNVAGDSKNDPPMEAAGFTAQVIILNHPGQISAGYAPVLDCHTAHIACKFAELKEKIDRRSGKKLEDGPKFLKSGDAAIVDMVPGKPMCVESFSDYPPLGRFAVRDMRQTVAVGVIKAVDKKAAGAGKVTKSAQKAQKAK
# Test: EMSA
# Conditions: EMSA: 40 mM NaCl, 5 mM MgCl2, 30 mM Tris-HCl pH 7.6, 2 mM DTT, protease inhibitors, 22 °C 15 min, then RNase T1 (described for CHO extract); 12 fmol RNA in …
sequence,measurement,value
GGAGUGACGAACAGUGCUGCUGCCCUCAGGUGUAAAUAAUUUCCGGACCAACUCAGAGUCUUGCCGUACACCUCCACCCAGUUUACUAAACCCCGUUUUCUACCGAGCAUGUG [MT-111 (MT-1 3′UTR nt 1-111)],binding,binds
